This is an account of results in PMC9359175.

Holding throughout (experiment): ITC; […]; 298 K; 20 mM HEPES pH 7.5, 150 mM NaCl; […]
Test [1] addresses 5HB-H3 (SARS-CoV-2 5-helix bundle, truncated construct) (SARS-CoV-2) (UniProt P0DTC2).
Test [2] concerns the target 5HB-H4 (SARS-CoV-2 5-helix bundle, shortest construct) (SARS-CoV-2) (UniProt P0DTC2).
In test [3] the target is 5HB-H1 (SARS-CoV-2 5-helix bundle, longest construct) (SARS-CoV-2) (UniProt P0DTC2).

Take “HR2P, 36-mer peptide derived from SARS-CoV-2 S HR2 (D1168-L1203)”: the Kd in test [1] was 18.4 nM; in test [2], 446 nM; in test [3], 9 nM.
